Sequences and labels used below:
B1: TPR t1 (parent)
chain: GACCAAUCUGCCCUCAGAGCUCGAGAACAUCUUCGGAUGCAGAGGAGGCAGGCUUCGGUGGCGCGAUAGCGCCAACGUCCUCAACCUCCAAUGCAUCCCACCACAUGAUGAUGCCUGAAGAGCCUUGGUUUUUUG

In the series the parent is B1. Briefly: polymerase ribozyme fitness, log enrichment relative to wild type (log ratio); higher = more active; in vitro selection for triplet polymerase activity. The procedure, abridged: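 Frozen incubation at −7 °C formed the core of a single, triplicate in vitro selection round applied to PCR-built, transcribed mutant libraries of each subunit of a heterodimeric triplet polymerase ribozyme. Extended constructs were gel-excised, captured with streptavidin beads and amplified by RT-PCR, and input and output libraries were Illumina-sequenced with a filter of ≥10 input reads and ≥1 read per output. Fitness is the logarithm of genotype enrichment relative to wild-type enrichment, with inverse-variance-weighted replicate averaging, and the logarithm is base 2.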
For GACCAAUCUGCCCUCAGAGCUCGAGAACAUCUUCGGAUGGAGAGGAGGCAGGCUUUGGUGGCGCGAUAGCGCCAACGUCCUCAACCUUCAAUGCAUCCCACCACAUGAUGAUGCCUGAAGAUCCUUGGUUUUUUG [C40G C56U C88U G122U], the “polymerase ribozyme fitness (log ratio)” value is -2.63.

GACCAAUCUGCCCUCAGAGCUCGAGAACAUCUUCGGAUGGAGAGGAGGCAGGCUUAGGUGGCGCGAUAGCGCCAACGUCCUCAACUUCCAAUGCAUCCCACCACAUGAUGAUGCCUGAAGAGCCUUGGUUUUUUG [C40G C56A C86U]: the “polymerase ribozyme fitness (log ratio)” value is -1.71. Consider GACCAAUCUGCCCUCAGAGCUCGAGAACAUCUUCGGAUGGAGAGGAGGCAGGCUUAUGUGGCGCGAUAGAGUCAACAUCCUCAACCUCCAAUGCAUCCCACCACAUGAUGAUGCCUGAAGAGCCUUGGUUUUUUG [C40G C56A G57U C70A C72U G77A], for which the “polymerase ribozyme fitness (log ratio)” value is -4.22.

GACCAAUCUGCCCUCAGAGCUCGAGAACAUCUUCGGAUGGAGAGGAGGCAGGCUUGGGUGGCGCGAUAGCGCCAACGUCCUCAACCUCCAAUGCAUCCCACCACAUGAUGAUGCCUGAAGAACCUUGGUUUUUUG [C40G C56G G122A]: the “polymerase ribozyme fitness (log ratio)” value is -1.45. With GACCAAUCUGCCCUCAGAGCUCGAGAACAUCUUCGGAUGGAGAGGAGGCAGGGUUCGGUGGCGCGAUAGCGCCAACAUCCUCAACCUCCAAUGCAUCCCACCACACGAUGAUGCCCGAAGAGCCUUGGUUUUUUG [C40G C53G G77A U106C U116C], the “polymerase ribozyme fitness (log ratio)” value is -3.58. Consider GACCAAUCUGCCCUCAGAGCUCGAGAACAUCUUCGGAUGGAGAGGAGGCAGGCUUCGGUGGCGCGAUAGCGCCAACGUCCUCAACCUCCAAUGCAUCCCUACACAUGAUGAUGCCUGAAGAGCCUUGGUUUUUUG [C40G A100U C101A], for which the “polymerase ribozyme fitness (log ratio)” value was -3.4. Then GACCAAUCUGCCCUCAGAGCUCGAGAACAUCUUCGGAUGGAGAGGAGGCAGGCUUCGGUGGUGCGAUAGCGCCAACGUCCUCAACCGCCAAUGCAUCCCACCACAUGAUGAUGCCUGAAGAGCCUUGGUUUUUUG [C40G C62U U87G], with -1.61; and GACCAAUCUGCCCUCAGAGCUCGAGAACAUCUUCGGAUGGAGAGGAGGCAGGCUUAGGUGGCGCGAUAGCGCCAACGUGCUCAACCUCCAAUGCAUCCCAUCACAUGAUAAUGCCUGAAGAGCCUUGGUUUUUUG [C40G C56A C79G C101U G110A], with -6.02. Then GACCAAUCUGCCCUCAGAGCUCGAGAACAUCUUCGGAUGGAGAGGAGGCUGGCUUCGGUGGCGCGAUAGCGCCAACGUCCUCAACCUCCAAUGCAUCCCACCACAUGAUGAUGCCUGAACAGCCUUGGUUUUUUG [C40G A50U G120C], with -0.881; and GACCAAUCUGCCCUCAGAGCUCGAGAACAUCUUCGGAUGGAGAGGAGGCAGGCUUCGGUGGCGCGAUAGCGCCAACGUCCUCAACCUCCAAUGCAUCCCUCCACAUGAUGAUGCCUGAAGAGCCUUGGUUUUGUG [C40G A100U U133G], with -4.07. For GACCAAUCUGCCCUCAGAGCUCGAGAACAUCUUCGGAUGGAGAGGAGGCAGGCUUCGGUGGCGCGAUAGCGCCAACGUCCUCAUCCUCCAAUGCAUCCCACCACAUGAUGAUGCCUGAAGAGCCUUGGUUUUUUG [C40G A84U], the “polymerase ribozyme fitness (log ratio)” value is -1.56. Then GACCAAUCUGCCCUCAGAGCUCGAGAACAUCUUCGGAUGGAGAGGUGGCAGGCUUCGGUGGCGCGAUAGCGCCAACGUCCUCAACCUCCAAUGCAUCCCACCACAUGAUGAUGCCUGAAGAGCCUUGGUUUUUUG [C40G A46U], with -2.96; and GACCAAUCUGCCCUCAGAGCUCGAGAACAUCUUCGGAUGGAGAGGAGGGAAGCUUCGGUGGCGCGAUAGCGCCAAUGUCCUCAACCUCCAAUGCAUCCCACCACAUGAUGAUGCCUGAAGAGCCUUGGUUUUUUG [C40G C49G G51A C76U], with -4.64.

For the variant GACCAAUCUGCCCUCAGAGCUCGAGAACAUCUUCGGAUGGAGAGGAGGCUGGCUUCGGUGACGCGAUAGCGCCAACGUUCUCAAGCUCCAAUGCAUCCCACCACAUGAUGAUGCCUUAAGUGCCUUGGUUUUUAG [C40G A50U G61A C79U C85G G117U A121U U134A], the “polymerase ribozyme fitness (log ratio)” value was -2.53.

As for GACCAAUCUGCCCUCAGAGCUCGAGAACAUCUUCGGAUGGAGAGGAGGCAGGCUUCGGUGGAGCGAUAGCGCCAACGUCCUCAACCUCCAAUGCAUCCCACCACAUGAUGAUGCCUGAAGAGCAUUGGUUUUUUG [C40G C62A C124A], the “polymerase ribozyme fitness (log ratio)” value is -0.241. For the variant GACCAAUCUGCCCUCAGAGCUCGAGAACAUCUUCGGAUGGAGAGGAGGCAGGCUUCGGUGGUGCGAUAGCGCCAACGUCCUCAACCUCCAAUGCAUCCCACCACAUGAUGAUGCCUGAAGAGCCUUGGUUUUUUG [C40G C62U], the “polymerase ribozyme fitness (log ratio)” value was -1.8. Then GACCAAUCUGCCCUCAGAGCUCGAGAACAUCUUCGGAUGGAGAGGAGGCAGGCUUCGGUGGUGCGAUAGCGCCAACGUCCUCAACCUCCAAUCCAUCCCACCACAUGAUGAUGCCUGAAGAGCCUUGUUUUUUUG [C40G C62U G93C G128U], with -1.46; and GACCAAUCUGCCCUCAGAGCUCGAGAACAUCUUCGGAUGGAGAGGAGGCAGGCUUCGGUGGCGCGAUAGCGCCAUCGUCCUCAACCUCCAAUGCAUCCCACCACAUGAUGAUGCCUGAAGAGCCUUAGUUUUUUG [C40G A75U G127A], with -2.31; and GACCAAUCUGCCCUCAGAGCUCGAGAACAUCUUCGGAUGGAGAGGAGGAAGGCUUCGGUGGCGCGAUAGCGCCAACAUCCUCAACCUCCAAUGCAUCCCACCACAUGAUGAUGCAUGAAGAGCCUUGGUUUUUUG [C40G C49A G77A C115A], with -2.4. Then GACCAAUCUGCCCUCAGAGCUCGAGAACAUCUUCGGAUGGAGAGGAGGCAGGUUUCGGUGGCGCGAUAGCGCCAACGUCCUCAACCUCCAAUGGAUCCCACCACAUUAUGAUGCCUGAAGAGCUGUGGUUUUUUG [C40G C53U C94G G107U C124U U125G], with -7.6; and GACCAAUCUGCCCUCAGAGCUCGAGAACAUCUUCGGAUGGAGAGGAGGCAGGCUUGGGUGGCGCGAUAGCGCCAACGUCCUCAACCUCCAAUGCAUCCCACCACAUGAUGAUGCCUGAAGAGCCUUGGUUUUUUG [C40G C56G], with -1.42.

The values above are taken from the RNAGym collection of RNA variant scans (doi:10.1073/pnas.2313332121).
